In US20120315284:

T1: GST-c-Jun, P05412
T1 chain: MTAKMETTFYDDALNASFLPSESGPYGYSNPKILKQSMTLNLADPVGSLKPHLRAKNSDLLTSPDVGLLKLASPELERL

B1: recombination GST-JNK1 (protein)
chain: MSRSKRDNNFYSVEIGDSTFTVLKRYQNLKPIGSGAQGIVCAAYDAILERNVAIKKLSRPFQNQTHAKRAYRELVLMKCVNHKNIIGLLNVFTPQKSLEEFQDVYIVMELMDANLCQVIQMELDHERMSYLLYQMLCGIKHLHSAGIIHRDLKPSNIVVKSDCTLKILDFGLARTAGTSFMMTPYVVTRYYRAPEVILGMGYKENVDLWSVGCIMGEMVCHKILFPGRDYIDQWNKVIEQLGTPCPEFMKKLQPTVRTYVENRPKYAGYSFEKLFPDVLFPADSEHNKLKASQARDLLSKMLVIDASKRISVDEALQHPYINVWYDPSEAEAPPPKIPDKQLDEREHTIEEWKELIYKEVMDLEERTKNGVIRGQPSPLAQVQQ
B2: MKK7 in cell lysate (immunoprecipitated with MKK7 antibody; the cells' own MKK7) (protein)
chain: AASSLEQKLSRLEAKLKQENREARRRIDLNLDISPQRPRPTLQLPLANDGGSRSPSSESSPQHPTPPARPRHMLGLPSTLFTPRSMESIEIDQKLQEIMKQTGYLTIGGQRYQAEINDLENLGEMGSGTCGQVWKMRFRKTGHVIAVKQMRRSGNKEENKRILMDLDVVLKSHDCPYIVQCFGTFITNTDVFIAMELMGTCAEKLKKRMQGPIPERILGKMTVAIVKALYYLKEKHGVIHRDVKPSNILLDERGQIKLCDFGISGRLVDSKAKTRSAGCAAYMAPERIDPPDPTKPDYDIRADVWSLGISLVELATGQFPYKNCKTDFEVLTKVLQEEPPLLPGHMGFSGDFQSFVKDCLTKDHRKRPKYNKLLEHSFIKRYETLEVDVASWFKDVMAKTESPRTSGVLSQPHLPFFR

Experiments:
GST-c-Jun, P05412 = biological target: T1, GST-c-Jun, P05412
[1] = biological target: recombination GST-JNK1, P45983

Protein	in vitro immune-co-kinase analysis (32P phosphorylation) (GST-c-Jun, P05412)	in vitro immune-co-kinase analysis (32P phosphorylation by immunoprecipitated MKK7) [1]
B1	the activated JNK1 phosphorylated GST-c-jun protein, a substrate of JNK pathway	–
B2	–	MKK7 was activated by depletion of TIP41 and phosphorylated GST-JNK1, a substrate of MKK7
